Article PMC5921574 (Molecular Biology of the Cell, 2018)

Biological target: actin filaments (F-actin) from rabbit skeletal muscle (rabbit, UniProt P68135 1-377)
Test: co-sedimentation

B1: LEV-11A(E234K), recombinant (natural protein)
chain: MASDAIKKKMQAMKIEKDNALDRADAAEEKVRQITEKLERVEEELRDTQKKMTQTGDDLDKAQEDLSAATSKLEEKEKTVQEAEAEVASLNRRMTLLEEELERAEERLKIATEKLEEATHNVDESERVRKVMENRSLQDEERANTVEAQLKEAQLLAEEADRKYDEVARKLAMVEADLERAEERAEAGENKIVELEEELRVVGNNLKSLEVSEEKALQREDSYEEQIRTVSSRLKKAETRAEFAERSVQKLQKEVDRLEDELVHEKERYKTISEELDSTFQELSGY
  fold decrease in affinity against wild-type LEV-11A: ~3 fold
